± gives the standard deviation of the averaged measurements.
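Note: ATP exposure 15 min at 22 °C before imaging.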

The subject of the data set is ATP. Briefly: switch fluorescence ratio, 500 uM ATP over buffer (Cy3 cluster intensity, sum of 5 cycles each) (fold (ratio)); higher = stronger signal-on switching upon ATP binding; sequences stand for … in TCGTCGGCAGCGTCAGATGTGTATAAGAGACAGTTTTTTTTTTTTTTTTTTTTTTTTT…TC. The note with it: aptamer strand: ATP DNA aptamer (quencher-CACCTGGGGGAGTATTGCGGAGGAAGG + anchor), 100 nM annealed; ATP concentration: 500 uM. The gist of the method: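 Clusters carrying Cy3-labelled switching strands on a modified Illumina MiSeq flow-cell were annealed to 100 nM quencher-labelled ATP aptamer and imaged in selection buffer. They were imaged again after 15 min with 500 uM ATP at 22 °C, over five buffer/ATP cycles with NaOH stripping and re-annealing in between. For each cluster, the fluorescence ratio is the summed Cy3 intensity of the target cycles divided by that of the buffer cycles, averaged per switch-domain sequence. Clusters outside 100-1000 RFU were left out.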
Turning to TGCCTTATGG, the switch fluorescence ratio came to 0.983 ± 0.045. TTTGCGACCT: the switch fluorescence ratio worked out at 1.13 ± 0.066. In the case of ATTTTTTTAG, the switch fluorescence ratio turned out to be 0.988 ± 0.02.

For the sequence GGCGCAAGCT, the switch fluorescence ratio worked out at 1.02 ± 0.025. Regarding AATAGAATAC, the switch fluorescence ratio was 1.163 ± 0.0021. Consider GGGAGCCGGG, for which the switch fluorescence ratio came to 1.03 ± 0.015.

As to TCTGGGGATG, the switch fluorescence ratio was 0.974 ± 0.072. The value for GAGATGTTTT was 0.988 ± 0.043; that for CGGGTAGGCT was 1.02 ± 0.057.

For the sequence CGAGATATTG, the switch fluorescence ratio came out at 0.9827 ± 0.0019. In the case of AACTTTTTAC, the switch fluorescence ratio was found to be 1.05 ± 0.028. TTCTTAAAAA: the switch fluorescence ratio came out at 0.993 ± 0.026.

Consider TTTTTACCCG, for which the switch fluorescence ratio came to 1.01 ± 0.013. AGGATAGGGT: the switch fluorescence ratio worked out at 1.02 ± 0.05. Take GGTGACCGTT: the switch fluorescence ratio was 0.992 ± 0.012. The result for ATGTGGGCAA reads 1.08 ± 0.013.

For the sequence GAGTATGCAT, the switch fluorescence ratio turned out to be 0.984 ± 0.023. The value for TATCTAGGTC was 0.954 ± 0.086; that for CGGTAACAAA was 1.01 ± 0.019. With AAAAAGTCTC, the switch fluorescence ratio turned out to be 0.9891 ± 0.0092. Consider TGGTAATAGG, for which the switch fluorescence ratio was found to be 1.0108 ± 0.00095.

Take TGAGTGCAAA: the switch fluorescence ratio came to 0.9933 ± 0.0023. As to TAAGAGGATC, the switch fluorescence ratio was 1.0083 ± 6.4e-05. As to TACGGAAAGT, the switch fluorescence ratio turned out to be 1.02 ± 0.015. On to TTGTCTGGGG, for which the switch fluorescence ratio amounted to 0.985 ± 0.03. GAGATAGGTT: the switch fluorescence ratio is 1.03 ± 0.073. With CAGAGGATAG, the switch fluorescence ratio was 1.017 ± 0.0088. The value for GAAACTGGAA was 0.997 ± 0.016; that for CGACGAACGA was 1.54 ± 0.07; that for TTATAGTCGT was 1 ± 0.015. Regarding GTTTCTTTGG, the switch fluorescence ratio was 1.06 ± 0.13. As to TTGTTTTTGT, the switch fluorescence ratio came to 1.03 ± 0.032. As for ATCGGTTGTG, the switch fluorescence ratio was 1.01 ± 0.029.

As to GCATTTAAGT, the switch fluorescence ratio was determined as 0.993 ± 0.06. With TACAAGGGTA, the switch fluorescence ratio was determined as 1.01 ± 0.06. In the case of TTCGGGGTCG, the switch fluorescence ratio was found to be 0.985 ± 0.072.

Take AGTTATGGGG: the switch fluorescence ratio was determined as 1 ± 0.032. Take AGACGGGTAG: the switch fluorescence ratio worked out at 0.968 ± 0.032.

TTTTCTGGTT: the switch fluorescence ratio is 0.97 ± 0.054. As to ATTTTTGATG, the switch fluorescence ratio is 1.02 ± 0.073. For GTTGCGGTTG, the switch fluorescence ratio was determined as 0.986 ± 0.039. The result for TGTGACAGGA reads 1.02 ± 0.057.

ACTGTAATTC: the switch fluorescence ratio came to 1.19 ± 0.041. TTATTTTAGC: the switch fluorescence ratio came to 0.976 ± 0.019. The value for TGATTCTGTG was 1.02 ± 0.03; that for TGGTGCAGGA was 0.9776 ± 0.0092; that for TGGGTACACG was 1 ± 0.0019. In the case of ATTTTTTGGT, the switch fluorescence ratio is 0.9981 ± 0.006. For the sequence TTGCTTGCGG, the switch fluorescence ratio was determined as 0.991 ± 0.041. In the case of TGCGAGGATG, the switch fluorescence ratio stood at 1 ± 0.0028. As to CCGGTGTAGA, the switch fluorescence ratio stood at 1.01 ± 0.034.

Consider TATTTTTCCG, for which the switch fluorescence ratio came out at 1.03 ± 0.012. Regarding GTAGTAAGCG, the switch fluorescence ratio came to 0.953 ± 0.045.

Consider AATTGGTGGT, for which the switch fluorescence ratio was 0.965 ± 0.032.

On to CAACGCGTTG, for which the switch fluorescence ratio turned out to be 1 ± 0.013.

On to AGGGCCAGTC, for which the switch fluorescence ratio worked out at 0.998 ± 0.074. On to GTTCATACGG, for which the switch fluorescence ratio amounted to 1.06 ± 0.043.

As for TGGCGGTAGT, the switch fluorescence ratio was 1.06 ± 0.056.

Turning to TTAAATAAAA, the switch fluorescence ratio was found to be 0.999 ± 0.028. Turning to TTCTAGCTTG, the switch fluorescence ratio was found to be 1.01 ± 0.047. For AAATGGAGAC, the switch fluorescence ratio was 1.01 ± 0.034. Turning to CCAAAGGGGA, the switch fluorescence ratio was 1.15 ± 0.27.

As for GTTTTTTTTT, the switch fluorescence ratio worked out at 1.02 ± 0.07.

Consider GGGTTTTAGG, for which the switch fluorescence ratio was determined as 0.999 ± 0.032. On to ACCGAGGCTT, for which the switch fluorescence ratio amounted to 1.45 ± 0.051. For AGGTTATTA, the switch fluorescence ratio is 0.9856 ± 0.0031. For AAAGTTGGTA, the switch fluorescence ratio worked out at 0.967 ± 0.055.

Take CTGAAGGGGG: the switch fluorescence ratio stood at 0.967 ± 0.058. Turning to TATCGTAGAG, the switch fluorescence ratio came to 1.011 ± 0.0072. For the sequence TTTTGATTCC, the switch fluorescence ratio amounted to 1.036 ± 0.009.

On to TGATTGGGGT, for which the switch fluorescence ratio is 1.01 ± 0.024. For the sequence TCTGATATAG, the switch fluorescence ratio worked out at 1 ± 0.003.

Regarding TGATTTGGTT, the switch fluorescence ratio amounted to 0.9903 ± 0.0083. The result for ATAGGGGGGT reads 1.02 ± 0.018. Turning to ATTTTGTTCG, the switch fluorescence ratio turned out to be 1.04 ± 0.011.

On to CCAGGGGGAA, for which the switch fluorescence ratio was determined as 1.09 ± 0.12. In the case of TACGTGGCGG, the switch fluorescence ratio was 1.02 ± 0.02. GCCGCGTGCG: the switch fluorescence ratio was found to be 1.06 ± 0.024. As for AATGGGGTCT, the switch fluorescence ratio came out at 1.01 ± 0.047.

For the origin of these results see the supplement of paper PMC10126150.
